Results from the DeepSol protein solubility set.

Test: soluble on expression in E. coli; label from the status in PepcDB or PDB records

Sequence	soluble on expression in E. coli
MGSDKIHHHHHHMKKTPKLSVQLWSVKDAINQDFNGTLKTLSNMGFDGVEFAGELGSYANDAKALKLFLDSIDLKASGAHVSFEQLDQDNFQKTVDFYHQLQVDTLIIGLDDRSWHPQGIEEVVKLLNQLDTKLDPYNIKTGFHNHEHEFDNFKGTTYWDYLAMNTKDSVVLQQDVGWTTYAGKDAVEYVYKYPNRSFTTHYRVCIPEGVKGKQPIIGRDTIDWLRLLKANINVGGTKWIVVEQDVYPNGMSSLAAVALSKNGLEQYIDKL	not soluble
MGSDKIHHHHHHMKKYHYSQAPLPFVGQKRMFASEFRKVLKRFSDRTVFVDLFGGSGLLSHITKRERPDATVIYNDHDNYRERLENISRTNALLSDLRRLSEGIPRHRMLSKKMHGMFLERIRREESTGFVDYLTISSSLLFSGKYARNIGELGKLNFYNNMRLSDYCCEGYLDGLEVVYCDYRELVDRYRDSPDVVFLIDPPYMATDISTYRMDWKLTDYLDVLLVLEGHPFIYFTSGKSPILDFCRWMEEHPETGNPFKGAGISTLTARMNYSSSYTDIMLYKEMTEAA	not soluble
MGSDKIHHHHHHMKLEELNSKYNAFITLHTIEEGNDKGKLKDVTFGIKDVILTKDVRTTAGSRVLENYVPQRNAYVVDAILREGGKIIGKTNTHEFALGATNTSSIGGPARNPVDPERISGGSSGGSAVAVKLDMVDVGIGTDTGGSVRIPSSLCGVIGFKPTTGLIPNDGVIPFSWSLDTVGIIVKDNIRLLRRVFDVVLPNEKRKVEIAKLRTRPRLGLFLFDDMEVSRILLKDIYAKLSSHFDIVEVDLPLLRQYGSKTRRTISLAEAASYHKDWISEYSDKYFKDTYTLLLDGMKISATDYIDALRHRRVLIEEYVKVFKNIDFILSPTTKIVAPRISDVISNPLQFREYLIANTELFNVVGAPSISVPFSTLNDLPAGLMISGELYKDGDLLEVAEYILNIVGKH	not soluble
MGSDKIHHHHHHMKLHYKKEHISCTNYKSESYEGFGIGTLTSGSNFNSQTLSVKTNFLIFILEGEVEIIPKEGKIKRVIAQEFFFISALSTYEIQVRVPGRYIYMSFLYNDIKLCEKHMLESYLKEVREASEEVGILSVRHPLNLFLELIDAYLRAGVNCKHLHSIKEKELFIILRTSYSKQEIVNLFHEIIGTNMSFKAAVLLHVDRVNNREELAQAMGMSITDLARKFKVEFGESVYSWLLKQKNKKIIYRLAQPGASVKEIVYEFGFSSAASFNKYCKKNFGNSPRELVRQLKDKHIDNQNLKI	not soluble
MGSDKIHHHHHHMKLICSKANLLKGVNIVSKAVPTRTTMAILECILIDASANEIKLMANDMELGIETIIDGTIEERGIIALDAKIFSEIVRKLPDNDVTIETDASFKTVISCEKAKFNIIGKSGDDFSYIPYVERNESIVLSQFTLKEVIRQTIFSIADNDNNKLMTGELFEIEENKLRVVSLDGHRISIRYIEMKNHYDSKKVVVPGKTLQEISKIIPGSADEDVVIYITNNHIVFEFENTTVVSRLIEGEYFKIDQMLSSDYDTKVRINKRELLDCIDRATLLVKEGDKKPIIMNITDGNMELRINSFIGSMNEDIDIDKDGKDIMIGFNPKFFIDALRVIDEEEVNLYMVNPKAPCFIKDDEGKFIYLILPVNFNTAAN	not soluble
MGSDKIHHHHHHMKLKNDELTVEFKPEGATISSIRDRDGVEYLWQGNPEYWGGQAPVLFPICGSLRNDGATFQVGEKTISGSMPRHGIVRKRTFDLVKHTENEIQFRILSDDEMLKQYPFPFELQLTYRLDGKRLETEYAIRYLGELDAMPFFIGGHPGFNCPLLEDEAFDDYYLEFELEEDCTIPESFPETGLLDFSKRQPMLSKTRILDLNYELFQHDALTFDNLKSRKVALKTKNHQKGLKVSFEDFPFLVVWTTTNKGPFIALEPWSGLSTSLTETDNFIDKTHVTYVEKGEVSRKAFTIEIC	not soluble
MGSDKIHHHHHHMKLKQSESFKMDAFSMRVGDIEGVELDRLHALSLSVGWPHRAEDWQFLRNVGRGVVVLDEIGRVQGSAMWFEHGADFATVGMVITSPRLQTLGAAQWLMKRIFDKVGGRDLRLNATRAARRLYLSLDFLPEKTVYQCQGIARLETTGGPTDLRDVRALDPSDIPAAIALDAAGFGVRRAALVEKLFVHSAGYGLFKHDKLNAFALCRPFGRGHVVGPVVAESDADAVAVVRPHVADNSGSFLRIDTHMANGDFAAFLSHSGMTVFDTVLTMSMGKRLADFAVNGTVAPVTYALASQTLG	not soluble
MGSDKIHHHHHHMKLRSWEFYDRIARAYDSMYETPKWKLYHRLIGSFLEEYLKNPCRVLDLGGGTGKWSLFLQERGFEVVLVDPSKEMLEVAREKGVKNVVEAKAEDLPFPSGAFEAVLALGDVLSYVENKDKAFSEIRRVLVPDGLLIATVDNFYTFLQQMIEKDAWDQITRFLKTQTTSVGTTLFSFNSYAFKPEDLDSLEGFETVDIRGIGVMEYPDERISEREETIFRLEQELSRDRNIIWKADHIFFVLKKKRGA	soluble
MGSDKIHHHHHHMKLWAIYFEPEDWVGFRETRRFSFSDRVESVFPSSFPFYGAVRTALLMKNQKFDPGDVERAGDVRMFGPFVFENTPEGRKHYFPLPRNIYKTDSGYRVTPIVEIDGVYLPWKPEYKMDSKESTSGGLIELSDLELLRSNTQGVCKFDLVSAEKIFKKETHIGVAFEENRKKVKERMIYSISYYRFYDGGFFMFTDDERTVELVSKLDGVFLGMKSKWSAVEVEELNTTAFDPPDYKNVAVALITPAVFDGGGMPKDKTILGKRVLTTAGIRKQVVSGWDLRENKPKKIYHAVSPGAVYYLEGKVNGHVLNESKFTDFGFGRCIFMKYEKL	not soluble
MGSDKIHHHHHHMKMCYNEKRKNMTLRHPGISPTNDSVAKKIFSNPEITWQFIRDMLDLPAKNVTILEGSNIHVLPSLPYSAQDFYTSINVLAELDNGTQVIIEIQVHHQNFFINRLWAYLCSQVNQNLEKIRQREGDTHQSYKHIAPVYAIAIVNSNYFQDDLAFHSFSMREDTTGEALTITNNSQENHLVKMAFLELKKYRETSKDKIRKPWLEFFGNKPFTQQPERAISQAYQLLDYKSWSEEDRKMFSEQRRREEQALLAQDYALEQAEEKGLERGKVEGREEGKLFAFLDMVRQGLLTSEVASQQLGMTVAEFEALL	not soluble
MGSDKIHHHHHHMKMKGIESLKEIFKYGAFSLPVANYLLCEGNIPGDCKRILDVLKLAWKGNFKEAIRRADKAVENSRSETAKYFLLANKLAFLKYTGKTDVNLYRYLKRNLPKMSKSIRDTVIVTLINFEASGIKPLRKVRVWKNDYRKSTLSFLYLSLARREADSGRLSEAVHDYIQAYRLSREVPHPTCIVSSLNDLAWDIREKHPKLAHALSQGAVFWLGYYREEPGNLFGALDTLFVVEKDMDSPSIHSTAHIIVSLPVPEDYLSLLKKAKKFVLDYTGSTYPNTSQLRRYVEKVAWKGKTLSSKGISDILKGKTKMIRADTIRKLLTSGVDTGAPFPVWNEWIKMEIERKYRESSEKLKELPFHQRQILFLTTYMALLDREFLSRKEKLKKAYTLLEDIESFADFMAKDHRTMEFVVSMVKAHPFVEGRKEAVKRALARMKRKRLERFVLRYIEMKESDRKLLDRFLRNYGRYDGVRFGIRLKGPEVVREFAKKYSLKVQPLFAAFWCEEDGRVRRRLERVLKHMVLYNLIEIAILFVMVEK	not soluble
MGSDKIHHHHHHMKNFVTSERSIFEMEKSTEPAIRVKDGSVVKIKTKDHFNGQIHAKQLHYGELDWKQFSPTTGPIYIEEARPGDLLAITIEKIELLGTEVFLLNGPNIGITDDLLTSNSTRCYKVENNQIIYSEDIHIPIRKTIGLLKTEELNPSKVPTKNGGLLDSSKITEGATIFLPVEKYGASLHVGNVRATTGFGKITATSAEAPAEVTLRLQILKNRTAPTPTIIHYHNLICLASDITIEKATQKTMHNMITLLTESDKMTTEDALFLISLQADFQVCKLCKPNITTSIKLPLDYFPEMPFL	not soluble
MGSDKIHHHHHHMKNRDWYTSLVSGLLFPLQERLKDHSTVSVRKALELSQWWNRERLENLQLLKLRHLLAEAEAHVPYYRRIFAEIGFKAAEVSSLADLARLPLLDKPAIRADTEALKSQKARSLRSFNTGGSSGEPLTFYIGRERVSHDVAAKWRATRWWDVDIGDPEMVVWGSPIELGAQDRLRMLRDRLLRTRLFPAFEMSEQKLDRFLGELRAAPPRMFFGYPSALSHIARHAQARGQRMDDLGINVAFVTSERLYDEQRQQISKTFGCPVANGYGGRDAGFIAHECPEGGMHITAEDIIVEIVDRQGVPLPCGEAGEIIVTHLSTAEFPFIRYRTGDIGILDDRICRCGRGLPLLREIQGRSTDFVVAQDGTVMHGLALIYILRELPQISHFKIIQESLNLIHIWVVSGAKLDREITAKIEEEFKARLGQSVEVLIEETTEIPAEKSGKFRYVISKIAGA	not soluble
MGSDKIHHHHHHMKPERILNVPGAVNFRELGGYQTKFNQTIKWQKLLRSGELSHLTPRTQALLADYGLKYDIDLRSPAEASWSSDKIPAQTIYRFYPVYPIQDNEKSDLPQNKHLKYQAYEQSLYDPYLTMAFSEHSRIAFHQMFVDLLANTNEKESLLFHCAAGKDRTGMAGMLILSALQVPYQTIREDYLLTNLVYSNQDPDELRRQITGKHVDKLIQKMNSVFSVTASSLDHTHDLILDRFGSFDHYFKEALEFSDQDLADLRQIYLE	not soluble
MGSDKIHHHHHHMKPNIITVILAAGASSRFHGAKMLAKVKGNQSLLARSIVSLNKVTATAGIKAPAVVLGAHLNDEIMAITATSHQIINPDWQQGLSSSVKHASQYAIEQQADALLLVLADQVAIDVDDYLHLIERYQQNGLTSCAFYRQDVGVPAIFLAKDFAVLMSIDGDKGAKSILKQHDKNNSLNIISMEQAQFDIDTPADLARWLDNKD	not soluble
MGSDKIHHHHHHMKPSGSAICIETAAMTMRFGSFTALDAVSIKVQAGSFHALLGENGAGKSTLVKCIMGFYRQTSGQLLVEDREVEIASPRDAAALGLGMVYQHFTLVPSLTGAENLVISRNAVPAMINWRRERQALNDFMATMPFQIPLERPVRELSAGEKQKLEIIKQLYLGRRFLILDEPTSVLTPAEADDMLGLVRSMTERGALTVLMISHKFHEVRKFADAVSVLRRGKLVGSGRTADLTTQEMAAMMIGDVKLAELDSRLPVVEASPSILSIRGMKTRDRSGLKSIEVDDLKVRAGEIVGIAGISGNGQKELAEVLAGQRPAEAGDITVKDRPYTATRQETRAANVRFIPEEPLLNACAPRMSVAENLSFRDFDVDAKGKTRFWLNAKAMRETAGRLIADFKVKTASPASPIASLSGGNVQRAVLARELTGDVDLLVVSNPCFGLDFSAVAEIRARIMKARNNGSAVLLFSEDLDELMEMSDRIVVMSDGRLVYETPARGADIAVIGAHMAGHA	not soluble
MGSDKIHHHHHHMKRENLHQPFEICFSELDESQLKEHDHTFFELVYILSGTGIQWINNNKFPYHDGHLFMITPGDIHSFDIHTTTKFVYIKFNDIYIHSAVFGAENIQRLEFILQHANHRPGCILRNQTDKLLVKPMIEAIIREYVNRNIYSSEIITQLINTIVIVVARNIAMFLPEQIDENSEEKSLNILQYIQSNICYPEKIKAKAISQHFGISPNYLGRYFKKQTNETMQQYILNYKMKMVESRLLHSEMRISEIVEELGFTDESHLNRLFKKYKDCNPTDFRKKHRGQ	not soluble
MGSDKIHHHHHHMKRFTLWNSYVAITESKEFVDWNKTKIIGSFKCPAFSYRSSTQIKADPFLFEYNNAIYLFYEEKYKNGKGYIVCTWTSDLKNWSQPVVVLKEPFHLSFPYVFKINDKIYMLPESNESNELRLYECVDFPYKWKLNKIIFDNGKYVDSSIICKGDIYYLFTTHKTENSFYHELYYCNDLLSDKWIKHPQSPISNNPKFARNGGSVFSHNNNLFRPAQDCSVSYGNNLSIFNVTHLSIDKYEETLVATNFFPKYKFKHGGHHFSHIEYKGQNIIAFDKKSREYAITPLFSSLYALICRLMKITSHK	not soluble
